Measured values as given in US20040229301A1 (published 2004).
Positions count from the first letter of the chain named. “And” between values parts separate entries of the source, which are not always exact repeats. Identical values can stand only once.

B1: monoclonal anti-TF antibody TF196 (hybridoma cell line TF196, ATCC PTA-5196) (antibody, V domains shown)
VH: QVQLKQSGPELEKPGASVKISCKASGYSFTGYNMNWVKQSNGKSLEWIGNIDPYYGGTSYNQKFKGKATLTVDKSSNTAYMHLKSLTSEDSAVYYCARDSSSWFAYWGQGTLVTVSA
VL: DIQLTQSPASLSASVGETVTITCRASGNIHNYLAWYQQKQGKSPQLLVYNAKTLADGVPSRFSGSGSGTQYSLKINSLQPEDFGSYYCQHFWITPWTFGGGTKLEI
notes: Mouse hybridoma IgG
B2: monoclonal anti-TF antibody TF278 (hybridoma cell line TF278, ATCC PTA-5676) (antibody, IgG1, V domains shown)
VH: EVQLQQSGAELMKPGASVKISCKATGYTFSSYWIEWVKQRPGHGLEWIGEILPGSASTKYNEKFKGKATFTADTSSNTAYMQLSSLTSEDSAVYYCARDYYYGSSYGFAYWGQGTLVTVSS
VL: QAVVTQESALTTSPGETVTLTCRSSTGAVTTSNYANWVQEKPDHLFTGLIGGTNNRGPGVPARFSGSLIGDKAALTITGAQTEDEAVYFCALWYSNHWVFGGGTKLTVLG
B3: monoclonal anti-TF antibody TF260 (hybridoma cell line TF260, ATCC PTA-5197) (antibody, V domains shown)
VH: QVQLKQSGAELMKPGASVKISCKATGYTFSSYWIEWVKQRPGHGLEWIGEILPGSGSTNYNEKFKGKATFTADTSSNTAYMQLSSLTSEDSAVYYCAREDRYDGDYWGQGTTLTVS
VL: B2 VL with G57A, V87I
B4: monoclonal anti-TF antibody TF392 (hybridoma cell line TF392, ATCC PTA-5677) (antibody, IgG1, V domains shown)
VH: QVQLKESGAELMKPGASVKISCKATGYTFSSYWIEWVKQRPGHGLEWIGEILPGSGSTNYNEKFKGKATFTADTSSNTAYMQLSSLTSEDSAVYYCARDRNGYVNYFDSWGQGTTLTVSS
VL: B2 VL with G57A, V87I
B5: monoclonal anti-TF antibody TF9 (hybridoma cell line TF9, ATCC PTA-5674) (antibody, V domains shown)
VH: DVKLQESGPDLVKPSQSLSLTCTVTGYSITSGYSWHWIRQFPGNKLEWMGYIHYSGSTKYNPSLKSRISITRDTSKNQFFLQLNSVTTEDTATYYCARLWSWYFDVWGAGTTVTVSS
VL: NIMMTQSPSSLAVSAGEKVTMSCKSSQSVLYSSNQKNYLAWYQQKPGQSPKLLIYWASTRESGVPDRFTGSGSGTDFTLTISSVQAEDLAVYYCHQYLSSYTFGGGTKLEIK
B6: monoclonal anti-TF antibody TF277 (hybridoma cell line TF277, ATCC PTA-5675) (antibody, IgG1, V domains shown)
VH: QVQLQQPGAELVKPGASVKLSCKTSGYTFTSYWMHWVKQRPGQGLEWIGEIDPSDSYTNYNQKFKGKATLTVDKSSSTAYMQLSSLTSEDSAVYYCTYYVNYYAMDYWGQGTSVTVSS
VL: QIVLTQSPAIMSASLGEEITLTCSASSSVSYMHWYQQKSGTSPKLLIYSTSNLASGVPSRFSGSGSGTFYSLTISSVEAEDAADYYCHQWSSYPYTFGGGTKLEIK

Legend:
[1] = target: T1, soluble human tissue factor (extracellular domain of hTF with C-terminal RGS-His6 tag) (human, UniProt P13726 33-251); test: BIAcore X, soluble hTF immobilized on CM5 chip, mAb injected
T1 construct: leader left out (range computed from the stated lengths); Expressed in HEK293, purified on Ni-agarose and by gel filtration; also called soluble hTF; recombinant soluble hTF
Experimental: Binding properties of anti-hTF mAbs were evaluated using BIAcore X. Briefly, a CM5 BIAcore biosensor chip was docked into the instrument and activated with 55 μl of 1:1 NHS/EDC at room temperature. The recombinant soluble hTF and BSA (10 μg/ml in 0.05 M acetate buffer, pH 4.5) were immobilized on the activated chips in flow cells 1 and 2, respectively. The immobilization was carried out at a flow rate of 5 μl/min until a resonance response of 1000-2000 RU was achieved. The chip was then blocked by injection of 55 μl of ethanolamine-HCl, pH 8.5 followed by 5 washes with 50 mM NaOH, 1 M NaCl. To measure the binding of anti-hTF mAbs to the soluble hTF immobilized to the chip, 30 μl of anti-hTF mAbs at varying concentrations in BIAcore running buffer (HBS-EP, Biacore AB, Uppsala, Sweden, Cat. #1001-08) were injected over the sensor surface at a flow rate of 5 μl/min. Following completion of the injection phase, dissociation was monitored in BIAcore running buffer at the same flow rate for 360 seconds. The surface was regenerated between injections using 30 μl of 50 mM NaOH-1 M NaCl. Individual sensorgrams were analyzed using BIAsimulation software.

[2] = target: T2, human tissue factor, endogenous, on tumor cell lines (H596; TF-positive SW900) (human, UniProt P13726 33-295); test: FACS on H596 cells
T2 construct: whole, on cells; also called hTF

[3] = target: full-length human tissue factor with C-terminal RGS-His6 tag, stably expressed on CHO-K1 cells (human, UniProt P13726 33-295); test: cell-based or functional assay

| Binder | Kd [1] | koff [1] | kon [1] | EC50 [2] | Coagulation (seconds), Ab 10 ug/ml [3] | Bmax [2] |
| --- | --- | --- | --- | --- | --- | --- |
| B1 | 66.3 nM | 0.00279 s⁻¹ | 42100 M⁻¹ s⁻¹ | – | – | – |
| B2 | 0.789 nM | 0.000138 s⁻¹ | – | 0.48 nM and 1.14 nM | 190 s | – |
| B3 | 19.3 nM | 0.000191 s⁻¹ | 9910 M⁻¹ s⁻¹ | – | – | – |
| B4 | 2.46 nM | 0.00013 s⁻¹ | – | 6.29 nM | 210 s | 58 |
| B5 | 1.84 nM | 0.000364 s⁻¹ | – | – | 195 s | – |
| B6 | 7.14 nM | 0.00312 s⁻¹ | – | 0.48 nM and 0.71 nM | 202 s | – |
